Among the data in patent publication US20110020361A1 are 50% binding values, retold here.

The test has as its target cell surface-associated mesothelin (UniProt Q13421). The test is described as follows: flow cytometry titration of IgG1 m912 on H9 cells, medium fluorescent units. In general terms: Flow cytometry measures light scatter and fluorescence of single cells or particles in a stream.

In turn, IgG1 m912 (antibody) gave a 50% binding of 5 to 10 nM.
